Tests used:
[1] = target: T1, monomeric SARS-CoV-2 receptor binding domain (RBD-H6) (SARS-CoV-2, UniProt P0DTC2 319-541); experiment: ELISA screen
T1 construct: Made in HEK293-6E cells; also called RBD Spike; monomeric RBD

[2] = target: T2, human recombinant soluble ACE2 (human, UniProt Q9BYF1 18-740); experiment: ELISA screen
T2 construct: also called hrsACE2

[3] = target: T3, full-length trimeric SARS-CoV-2 Spike protein (Spike-H6) (SARS-CoV-2, N-glycosylated (22 N-glycosylation sites)); experiment: ELISA screen
T3 construct: also called trimeric Spike; full-length Spike-H6

[4] = target: T2, human recombinant soluble ACE2; experiment: ELISA

T2 sequence (Q9BYF1 18-740 limits assumed): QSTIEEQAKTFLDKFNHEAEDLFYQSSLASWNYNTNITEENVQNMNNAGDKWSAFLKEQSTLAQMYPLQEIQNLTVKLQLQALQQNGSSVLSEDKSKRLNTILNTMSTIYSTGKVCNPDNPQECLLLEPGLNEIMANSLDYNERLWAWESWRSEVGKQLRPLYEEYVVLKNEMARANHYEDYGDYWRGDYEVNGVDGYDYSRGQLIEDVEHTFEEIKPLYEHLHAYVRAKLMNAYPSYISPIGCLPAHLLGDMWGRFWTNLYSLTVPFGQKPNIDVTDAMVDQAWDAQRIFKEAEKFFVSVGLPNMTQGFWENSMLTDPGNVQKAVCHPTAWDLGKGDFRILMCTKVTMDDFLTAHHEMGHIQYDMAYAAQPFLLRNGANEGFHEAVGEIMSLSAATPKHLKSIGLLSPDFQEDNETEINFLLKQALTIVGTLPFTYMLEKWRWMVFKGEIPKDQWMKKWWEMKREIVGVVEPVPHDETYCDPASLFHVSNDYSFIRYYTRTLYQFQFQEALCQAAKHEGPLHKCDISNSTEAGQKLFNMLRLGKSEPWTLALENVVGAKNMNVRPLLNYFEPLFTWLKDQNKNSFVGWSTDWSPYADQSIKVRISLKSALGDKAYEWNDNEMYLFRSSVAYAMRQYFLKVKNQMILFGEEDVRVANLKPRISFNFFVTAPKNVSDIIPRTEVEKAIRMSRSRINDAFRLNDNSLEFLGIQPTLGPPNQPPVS

Binder | Mean normalized OD [1] | Mean normalized OD [2] | Mean normalized OD [3] | binding result [4]
Siglec15 CRD-mouse IgG2a-Fc fusion protein (Fc fusion) PAQRWSMQVPAEVNAEAGDAAVLPCTFTHPHRHYDGPLTAIWRSGEPYAGPQVFRCTAAPGSELCQTALSLHGRFRLLGNPRRNDLSLRVERLALADSGRYFCRVEFTGDAHDRYESRHGGGSGGGSGGGS | 0.001 OD | 0.011 OD | 0.008 OD | no binding (tested: 10 µg/ml)
Asgr2 CRD-mouse IgG2a-Fc fusion protein (Fc fusion) CCPVNWVEFGGSCYWFSRDGLTWAEADQYCQLENAHLLVINSREEQDFVVKHRSQFHIWIGLTDRDGSWKWVDGTDYRSNYRNWAFTQPDNWQGHEQGGGEDCAEILSDGHWNDNFCQQVNRWVCEKGGGSGGGSGGGS | 0.013 OD | 0.034 OD | 0.003 OD | no binding (tested: 10 µg/ml)
Thbd CRD-mouse IgG2a-Fc fusion protein (Fc fusion) VEHECFALFQGPATFLDASQACQRLQGHLMTVRSSVAADVISLLLSQSSMDLGPWIGLQLPQGCDDPVHLGPLRGFQWVTGDNHTSYSRWARPNDQTAPLCGPLCVTVSTATEAAPGEPAWEEKPCETETQGFLCEFGGGSGGGSGGGS | 0 OD | 0.001 OD | 0.003 OD | no binding (tested: 10 µg/ml)
Clec10a CRD-mouse IgG2a-Fc fusion protein (Fc fusion) CCPLHWTEHEGSCYWFSESEKSWPEADKYCRLENSHLVVVNSLEEQNFLQNRLANVVSWIGLTDQNGPWRWVDGTDFEKGFKNWAPLQPDNWFGHGLGGGEDCAHITTGGPWNDDVCQRTFRWICEMGGGSGGGSGGGS | 0.064 OD | 0.125 OD | 0.069 OD | no binding (tested: 10 µg/ml)
Sftpd CRD-mouse IgG2a-Fc fusion protein (Fc fusion) VGDKIFRTADSEKPFEDAQEMCKQAGGQLASPRSATENAAIQQLITAHNKAAFLSMTDVGTEGKFTYPTGEPLVYSNWAPGEPNNNGGAENCVEIFTNGQWNDKACGEQRLVICEFGGGSGGGSGGGS | 0.002 OD | 0.016 OD | 0.031 OD | no binding (tested: 10 µg/ml)
Clec12b CRD-mouse IgG2a-Fc fusion protein (Fc fusion) YGNSCYYFSINEEKSWSDSRKDCIDKNATLVKIDSTEERDLLQSQLSLTFSFFWLGLSWNSSGRNWLWEDGSFPPPTLFSDKELASFNGSRDCAYFERGNIYASRCSAEIPWICEGGGSGGGSGGGS | 0.001 OD | 0.007 OD | 0.002 OD | no binding (tested: 10 µg/ml)
Cd72 CRD-mouse IgG2a-Fc fusion protein (Fc fusion) CCPCGWIPYQERCFYISHTLGSLEESQKYCTSLSSKLAAFDEPSKYYYEVSLPSGLEELLDRSKSYWIQMSKKWRQDSDSQSRHCVRIKTYYQKWERTISKCAELHPCICESGGGSGGGSGGGS | 0.015 OD | 0.044 OD | 0.033 OD | no binding (tested: 10 µg/ml)
Cd22 CRD-mouse IgG2a-Fc fusion protein (Fc fusion) SANDWTVDHPQTLFAWEGACIRIPCKYKTPLPKARLDNILLFQNYEFDKATKKFTGTVLYNATKTEKDPESELYLSKQGRVTFLGNRIDNCTLKIHPIRANDSGNLGLRMTAGTERWMEPIHLNVSEGGGSGGGSGGGS | 0.004 OD | 0.006 OD | 0.027 OD | no binding (tested: 10 µg/ml)
Clec11a CRD-mouse IgG2a-Fc fusion protein (Fc fusion) LGHKCFLLSRDFETQAAAQARCKARGGSLAQPADRQQMDALSRYLRAALAPYNWPVWLGVHDRRSEGLYLFENGQRVSFFAWHRAFSLESGAQPSAATHPLSPDQPNGGVLENCVAQASDDGSWWDHDCERRLYFVCEGGGSGGGSGGGS | 0.011 OD | 0.17 OD | 0.032 OD | no binding (tested: 10 µg/ml)
